In test [1] the target is wild-type human Neurotensin Receptor 1 (hNTSR1) (human) (UniProt P30989). Briefly: radioligand binding.
The target of test [2] is wild-type rat Neurotensin Receptor 1 (rNTSR1) (rat) (UniProt P20789). Briefly: radioligand binding.

This passage reports Kd results from paper doi:10.1101/2022.12.26.521971.

Several values for one entry are separate records, joined by “and”; a condition that tells them apart may be missing. Identical values can stand only once.

Chain of wild-type human Neurotensin Receptor 1 (hNTSR1) (human) (P30989 whole entry): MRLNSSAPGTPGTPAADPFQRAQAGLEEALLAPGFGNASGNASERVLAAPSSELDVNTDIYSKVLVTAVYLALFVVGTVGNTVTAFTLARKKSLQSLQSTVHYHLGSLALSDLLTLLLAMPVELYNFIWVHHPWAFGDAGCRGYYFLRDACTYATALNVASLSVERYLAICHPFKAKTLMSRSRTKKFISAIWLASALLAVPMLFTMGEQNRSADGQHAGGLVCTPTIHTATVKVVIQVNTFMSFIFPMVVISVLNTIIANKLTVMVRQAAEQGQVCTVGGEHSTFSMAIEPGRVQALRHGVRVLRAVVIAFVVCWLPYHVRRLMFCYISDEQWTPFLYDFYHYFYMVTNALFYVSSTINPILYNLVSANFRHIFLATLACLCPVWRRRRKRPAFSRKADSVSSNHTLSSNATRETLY
Chain of wild-type rat Neurotensin Receptor 1 (rNTSR1) (rat) (P20789 whole entry): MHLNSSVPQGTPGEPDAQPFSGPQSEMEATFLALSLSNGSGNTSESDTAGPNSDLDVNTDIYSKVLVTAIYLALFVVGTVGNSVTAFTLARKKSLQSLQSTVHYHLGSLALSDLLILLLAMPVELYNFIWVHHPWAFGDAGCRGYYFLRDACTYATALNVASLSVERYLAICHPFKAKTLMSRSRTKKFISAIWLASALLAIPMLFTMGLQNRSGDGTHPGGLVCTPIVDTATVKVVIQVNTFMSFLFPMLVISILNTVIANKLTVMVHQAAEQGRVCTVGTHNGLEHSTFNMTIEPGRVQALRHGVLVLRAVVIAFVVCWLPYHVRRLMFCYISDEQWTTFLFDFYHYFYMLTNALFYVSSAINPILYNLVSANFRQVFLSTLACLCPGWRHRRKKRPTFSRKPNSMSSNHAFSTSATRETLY

[3H]Neurotensin (peptide): the Kd (as a rule, the constant that tells how readily two partners part at equilibrium) is 2.14 nM and 0.92 nM in test [1]; 2.3 nM and 0.67 nM in test [2].
